Numbering of substitutions follows the chain as printed. Names may count otherwise.
B1: humanized anti-LILRB1 antibody Hu B1-176-N297A (antibody, V domains shown)
VH: EVQLVESGGGLVQPGGSLRLSCAASGFSFSSSYCMCWVRQAPGKGLELVSCIYTDSSGATYYASWAKGRFTISRHNSKNTLYLQMNSLRAEDTAVYYCARGWDYEDPGYTDTTYFSLWGRGTLVTVSS
VL: DIQLTQSPSFLSASVGDRVTITCQASQTIYTNLAWYQQKPGKAPKLLIYAASTLASGVPSRFSGSGSGTEFTLTISSLQPEDFATYYCQSYYGSSTTGNGFGGGTKVEIK
B2: humanized anti-LILRB1 antibody Hu B1-176-LALAPG (antibody, V domains shown)
VH: B1 VH
VL: B1 VL
B3: rabbit anti-LILRB1 monoclonal antibody B1-176 (antibody, V domains shown)
VH: QSLEESEGGLVKPGGTLTLTCTASGFSFSSSYCMCWVRQAPGKGLELIACIYTDSSGATYYASWAKGRFTISKSSSTTITLQMTSLTAADTATYFCARGWDYEDPGYTDTTYFSLWGPGTLVTVSS
VL: ELDLTQTPSSVEAAVGGTVTIKCQASQTIYTNLAWYQQKPGQPPNLLIYAASTLASGVSSRFKGSGSGTEFTLTISDLECADAATYYCQSYYGSSTTGNGFGGGTEVEIK
B4: humanized B1-176 with heavy chain Hu-176 VH-1 and light chain Hu-176 VL (antibody, V domains shown)
VH: B1 VH with L48W
VL: B1 VL
B5: humanized B1-176 with heavy chain Hu-176 VH-2 (W48L), as tested in Figure 3B (antibody, V domains shown)
VH: B1 VH
VL: B1 VL

Tests used:
recombinant LILRB1 [1] = target: T1, recombinant LILRB1 (Homo sapiens, UniProt Q8NHL6); assay: BLI + ELISA
T1 sequence (Q8NHL6 24-461): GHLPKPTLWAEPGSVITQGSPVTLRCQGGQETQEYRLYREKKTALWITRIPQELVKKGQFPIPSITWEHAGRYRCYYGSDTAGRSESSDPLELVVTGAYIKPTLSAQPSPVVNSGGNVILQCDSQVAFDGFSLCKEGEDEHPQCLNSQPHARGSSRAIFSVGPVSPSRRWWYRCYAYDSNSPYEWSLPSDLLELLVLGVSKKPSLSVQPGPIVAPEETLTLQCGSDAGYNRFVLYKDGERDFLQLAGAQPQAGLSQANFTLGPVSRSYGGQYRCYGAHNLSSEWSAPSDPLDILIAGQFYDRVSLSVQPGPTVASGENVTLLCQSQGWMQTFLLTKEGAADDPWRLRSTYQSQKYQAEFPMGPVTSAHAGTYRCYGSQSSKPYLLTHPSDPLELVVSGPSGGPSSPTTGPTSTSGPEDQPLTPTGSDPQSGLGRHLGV

recombinant LILRB1 [2] = target: T1, recombinant LILRB1; assay: BLI
recombinant LILRB1 [3] = target: T1, recombinant LILRB1; assay: ELISA

binding result (recombinant LILRB1 [1]) | binding result (recombinant LILRB1 [3]) | other results | Binder
binds | – | – | B1
binds | – | – | B2
– | – | Kd (recombinant LILRB1 [2]): ~0.01 nM | B3
– | binds | – | B4
– | binds | – | B5

From PMC7418854 (Journal for Immunotherapy of Cancer, 2020)
